Laboratory results: patent publication US20050215467A1 (published 2005)

T1: LCAT (purified from human plasma) (human, UniProt P04180 25-440)
T1 sequence (looked up): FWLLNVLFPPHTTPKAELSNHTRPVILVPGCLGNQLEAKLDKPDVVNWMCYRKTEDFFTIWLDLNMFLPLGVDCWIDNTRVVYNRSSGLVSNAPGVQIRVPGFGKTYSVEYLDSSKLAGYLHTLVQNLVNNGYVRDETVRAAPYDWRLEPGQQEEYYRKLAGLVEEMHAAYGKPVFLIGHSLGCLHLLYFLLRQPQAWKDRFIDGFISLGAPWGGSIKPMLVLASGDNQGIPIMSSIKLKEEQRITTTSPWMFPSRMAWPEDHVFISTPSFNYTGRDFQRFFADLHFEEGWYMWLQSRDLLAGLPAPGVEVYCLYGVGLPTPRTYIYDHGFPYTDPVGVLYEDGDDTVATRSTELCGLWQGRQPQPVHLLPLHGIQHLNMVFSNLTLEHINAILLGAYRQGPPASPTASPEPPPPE


Tests used:
[1] = target: T1, LCAT (purified from human plasma); assay: cell-based or functional assay
[2] = target: the molecule itself; assay: tryptophan fluorescence emission maximum (332 nm), peptide free in buffer; self-association

ACTIVITY (%) LCAT [1] [%]	Binder	binding result [2]
63	PVLDLFRELGNELLEALKQKLK [peptide 9]	
	PVLDLFRELWNELLEALKQKLK (peptide 4 containing a Trp residue at position 10) [peptide 15]	binds
